Source: US6649392 (US Dept. of Health and Human Services, dated 2003)

T1: RNase A (bovine pancreatic) (bovine, UniProt P61823 27-150)
T1 construct: also called bovine RNase A
T1 sequence (looked up): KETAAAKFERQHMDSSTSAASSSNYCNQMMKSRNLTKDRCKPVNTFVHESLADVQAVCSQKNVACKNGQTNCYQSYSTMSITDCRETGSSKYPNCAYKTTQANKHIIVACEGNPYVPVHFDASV

B1: native Onc purified from the eggs of Rana pipiens (enzyme, UniProt P22069 1-104, looked up)
chain: QDWLTFQKKHITNTRDVDCDNIMSTNLFHCKDKNTFIYSRPEPVKAICKGIIASKNVLTTSEFYLSDCNVTSRPCKYKLKKSTNKFCVTCENQAPVHFVGVGSC
modifications: pyroglutamyl residue at position 1 (amino terminus)
notes: mature; also called nOnc; ONCONASE
B2: recombinant Met(-1) human pancreatic ribonuclease (enzyme)
chain: MKESRAKKFQRQHMDSDSSPSSSSTYCNQMMRRRNMTQGRCKPVNTFVHEPLVDVQNVCFQEKVTCKNGQGNCYKSNSSMHITDCRLTNGSRYPNCAYRTSPKERHIIVACEGSPYVPVHFDASVEDST
notes: mature; also called rhRNase; hRNase
B3: placental ribonuclease inhibitor (other, UniProt P13489 2-461, looked up)
chain: SLDIQSLDIQCEELSDARWAELLPLLQQCQVVRLDDCGLTEARCKDISSALRVNPALAELNLRSNELGDVGVHCVLQGLQTPSCKIQKLSLQNCCLTGAGCGVLSSTLRTLPTLQELHLSDNLLGDAGLQLLCEGLLDPQCRLEKLQLEYCSLSAASCEPLASVLRAKPDFKELTVSNNDINEAGVRVLCQGLKDSPCQLEALKLESCGVTSDNCRDLCGIVASKASLRELALGSNKLGDVGMAELCPGLLHPSSRLRTLWIWECGITAKGCGDLCRVLRAKESLKELSLAGNELGDEGARLLCETLLEPGCQLESLWVKSCSFTAACCSHFSSVLAQNRFLLELQISNNRLEDAGVRELCQGLGQPGSVLRVLWLADCDVSDSSCSSLAATLLANHSLRELDLSNNCLGDAGILQLVESVRQPGCLLEQLVLYDIYWSEEMEDRLQALEKDKPSLRVIS
notes: also called PRI

Legend:
[1] = target: B3; experiment: steady-state inhibition of RNase activity by PRI
Protocol: (§1) Steady-state inhibition constants (K_i) for PRI interaction were determined using a modification of a method (Vincentini et al., Biochemistry 29:8827–8834 (1990)) to analyse competitive slow tight-binding inhibition mechanisms. Steady-state rates of product formation were calculated by a spectrophotometric method. […] The reaction was started by the addition of enzyme (0.01 to 2 nM depending on the assayed protein) and followed during 90–120 min. Several inhibitor concentrations were distributed below and above the enzyme concentration. […] The amount of product formed was calculated by following the absorbance decrease at 286 nm for CpA (change in ε=521 M^-1) and at 280 nm for UpG (change in ε=757 M^-1 cm^-1). The calculated steady-state rates for each inhibitor concentration were fitted by nonlinear regression to the equation for tight binding inhibition as described by Vicentini et al. (1990). In each case $I50$, defined as the total inhibitor concentration required to give 50% inhibition, were deduced from the V_s-I Dixon plot and compared to the calculated K_i, considering in each case the total enzyme concentration.
(§2) [a]K_i values were calculated from the observed steady-state rates (v_s) at different inhibitor concentrations, by fitting the data to the tight-binding non-linear regression equation.

[2] = target: rOnc1-9-hRNase12-127 hybrid (Rana pipiens; human) (UniProt P07998); experiment: steady-state inhibition of RNase activity by PRI
[3] = target: rhRNase1-11-rOnc10-104 hybrid (human; Rana pipiens) (UniProt P07998); experiment: approximate Ki from I50, inhibition of RNase activity by PRI
[4] = target: T1, RNase A (bovine pancreatic); experiment: steady-state tight-binding inhibition of RNase activity (CpA substrate, spectrophotometric); row RNaseA
Protocol: as §1, §2

[5] = target: B2; experiment: steady-state tight-binding inhibition of RNase activity (CpA substrate, spectrophotometric); row rhRNase
Protocol: as §1, §2

[6] = target: rOnc1-9-hRNase12-127 hybrid (Rana pipiens; human) (UniProt P07998); experiment: steady-state tight-binding inhibition of RNase activity (CpA substrate, spectrophotometric); row rOnc1-9-hRNase12-127
[7] = target: B1; experiment: approximate Ki calculated from I50, inhibition of RNase activity (UpG substrate, spectrophotometric); row nOnc
Protocol: as §1, §2

[8] = target: rhRNase1-11-rOnc10-104 hybrid (human; Rana pipiens) (UniProt P07998); experiment: approximate Ki calculated from I50, inhibition of RNase activity (UpG substrate, spectrophotometric); row rhRNase1-11-Onc10-104

binding result [1]	fold increase of Ki in relation to rhRNase [2] [fold]	fold increase of PRI affinity in relation to Onc [3] [fold]	Ki [4] [pM]	Ki [5] [nM]	Ki [6] [nM]	Ki [7] [nM]	Ki [8] [nM]	Binder
binds								B1
binds								B2
	30	3	0.058	0.0002	0.0056	≥ 100000	> 400	B3
